# Assay results: patent publication US20040043420A1, “Method of identifying conformation-sensitive binding peptides and uses thereof” (priority 2003, published 2004)
# No end group written: not given here.
# T1: ER α (UniProt P03372 1-595, limits assumed)
# T1 construct: also called estrogen receptor α; ERα-ERE
# T1 sequence (looked up): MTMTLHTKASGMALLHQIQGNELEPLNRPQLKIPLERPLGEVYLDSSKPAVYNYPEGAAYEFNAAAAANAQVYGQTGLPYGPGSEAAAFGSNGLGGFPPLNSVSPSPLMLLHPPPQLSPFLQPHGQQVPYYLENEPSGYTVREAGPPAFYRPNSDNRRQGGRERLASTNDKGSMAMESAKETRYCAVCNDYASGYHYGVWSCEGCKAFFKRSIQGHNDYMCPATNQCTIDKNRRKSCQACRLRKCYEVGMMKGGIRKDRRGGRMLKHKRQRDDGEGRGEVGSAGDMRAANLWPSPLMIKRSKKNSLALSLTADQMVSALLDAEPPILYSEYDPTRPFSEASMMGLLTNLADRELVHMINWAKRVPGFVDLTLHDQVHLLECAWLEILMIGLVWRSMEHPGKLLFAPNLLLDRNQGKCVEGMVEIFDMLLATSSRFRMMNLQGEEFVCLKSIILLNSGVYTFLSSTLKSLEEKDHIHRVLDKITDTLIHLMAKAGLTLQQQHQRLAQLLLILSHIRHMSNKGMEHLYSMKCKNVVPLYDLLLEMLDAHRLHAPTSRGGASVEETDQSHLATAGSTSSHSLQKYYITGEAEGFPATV
# T2: Gal4 transcriptional activation domain (AD) fused in frame with AR (yeast, UniProt P10275 1-920, limits assumed)
# T2 sequence (looked up): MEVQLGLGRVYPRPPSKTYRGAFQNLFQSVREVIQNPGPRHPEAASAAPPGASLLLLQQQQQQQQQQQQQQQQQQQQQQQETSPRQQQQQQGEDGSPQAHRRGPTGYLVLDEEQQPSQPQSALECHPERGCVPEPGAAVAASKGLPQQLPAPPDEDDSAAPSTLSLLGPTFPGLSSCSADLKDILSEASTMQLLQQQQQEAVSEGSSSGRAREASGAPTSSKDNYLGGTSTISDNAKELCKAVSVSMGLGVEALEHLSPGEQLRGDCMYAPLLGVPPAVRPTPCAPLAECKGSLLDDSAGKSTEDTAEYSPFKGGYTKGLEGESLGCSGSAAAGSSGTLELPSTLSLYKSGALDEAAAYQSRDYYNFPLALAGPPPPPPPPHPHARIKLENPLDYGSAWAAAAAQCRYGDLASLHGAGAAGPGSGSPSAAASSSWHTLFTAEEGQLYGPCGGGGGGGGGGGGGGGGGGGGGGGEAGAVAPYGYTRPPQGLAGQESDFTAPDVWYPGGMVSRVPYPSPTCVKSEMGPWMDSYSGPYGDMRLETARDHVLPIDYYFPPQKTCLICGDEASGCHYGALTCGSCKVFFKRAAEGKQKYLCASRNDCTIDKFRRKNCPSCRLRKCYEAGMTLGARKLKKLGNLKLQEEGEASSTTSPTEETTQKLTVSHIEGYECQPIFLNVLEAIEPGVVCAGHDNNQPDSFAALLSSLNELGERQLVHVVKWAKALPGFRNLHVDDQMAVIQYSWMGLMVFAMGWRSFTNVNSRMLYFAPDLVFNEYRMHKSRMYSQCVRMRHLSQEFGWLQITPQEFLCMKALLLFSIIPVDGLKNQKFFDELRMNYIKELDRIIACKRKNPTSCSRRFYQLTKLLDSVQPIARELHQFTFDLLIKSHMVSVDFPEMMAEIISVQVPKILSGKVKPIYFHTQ
# T3: estrogen receptor (ER) α as a carboxy-terminal fusion to the Gal4-activation domain (yeast, UniProt P03372 1-595, limits assumed)
# T3 sequence (looked up): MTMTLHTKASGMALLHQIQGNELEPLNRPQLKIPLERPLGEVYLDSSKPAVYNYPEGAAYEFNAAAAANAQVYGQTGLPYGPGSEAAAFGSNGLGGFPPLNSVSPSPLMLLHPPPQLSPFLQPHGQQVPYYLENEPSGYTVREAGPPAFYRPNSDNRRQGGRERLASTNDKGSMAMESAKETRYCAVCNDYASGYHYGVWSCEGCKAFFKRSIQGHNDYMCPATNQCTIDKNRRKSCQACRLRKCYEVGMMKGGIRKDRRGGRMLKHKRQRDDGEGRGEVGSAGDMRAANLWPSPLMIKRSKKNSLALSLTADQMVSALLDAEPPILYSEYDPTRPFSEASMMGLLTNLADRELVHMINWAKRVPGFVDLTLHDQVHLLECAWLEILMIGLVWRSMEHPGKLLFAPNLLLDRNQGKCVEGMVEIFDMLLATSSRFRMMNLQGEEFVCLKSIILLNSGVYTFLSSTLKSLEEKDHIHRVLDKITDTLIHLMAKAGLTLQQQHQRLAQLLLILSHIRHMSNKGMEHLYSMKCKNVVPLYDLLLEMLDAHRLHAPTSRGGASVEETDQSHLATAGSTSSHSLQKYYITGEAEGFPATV
# Target: T1, ER α
# Assay: phage isolated on ERα-ERE; Buffer
row,binding result,Binder
1,binds,SSRPDAAFFGAKLSR [3B]
2,binds,SSRIADLFWRLEPSR [1B]
3,binds,SRWWDTSWWLEELSR [6B]
4,binds,SSDWCFGWGGWCASEAVSR (not fully specified; cysteine pairing not given here) [10B]
5,binds,SSRPTAEWFRENLSR [5B]
6,binds,SRSYHGEWGVWTLSR [7B]
7,binds,SSRPSPSFWEKQLSR [4B]
8,binds,SRNWDWAALELLPYPHPSR [9B]

# Target: T2, Gal4 transcriptional activation domain …
# Assay: cell-based or functional assay
"β-galactosidase activity (yeast two-hybrid), CPA","β-galactosidase activity (yeast two-hybrid), DHT","β-galactosidase activity (yeast two-hybrid), No Lig","β-galactosidase activity (yeast two-hybrid), RU","β-galactosidase activity (yeast two-hybrid), MPA","β-galactosidase activity (yeast two-hybrid), Test",Binder
0.395,0.616,0.875,0.4,,,B8A10 (peptide) MKLLSSIEQACDICRLKKLKCSKEKPKCAKCLKNNWECRYSPKTKRSPLTRAHLTEVESRLERLEQLFLLIFPREDLDMILKMDSLQDIKALLTGLFVQDNVNKDAVTDRLASVETDMPLTLRQHRISATSSSEESSNKGQRQLTVSEFVNWDAVVPWSELVALLDLQPS
1.23,7.85,0.794,1.2,4.56,7.77,B22F6 (peptide) MKLLSSIEQACDICRLKKLKCSKEKPKCAKCLKNNWECRYSPKTKRSPLTRAHLTEVESRLERLEQLFLLIFPREDLDMILKMDSLQDIKALLTGLFVQDNVNKDAVTDRLASVETDMPLTLRQHRISATSSSEESSNKGQRQLTVSEFLSGLEMEVVLWHYGRLDLQPS
8.59,24.1,2.53,6.8,19.2,26.6,M2H3 (peptide) MKLLSSIEQACDICRLKKLKCSKEKPKCAKCLKNNWECRYSPKTKRSPLTRAHLTEVESRLERLEQLFLLIFPREDLDMILKMDSLQDIKALLTGLFVQDNVNKDAVTDRLASVETDMPLTLRQHRISATSSSEESSNKGQRQLTVSEFRQSFVSEILGGGWLPLDLQPS
1.53,1.43,1.12,1.5,1.44,0.969,B18C4 (peptide) MKLLSSIEQACDICRLKKLKCSKEKPKCAKCLKNNWECRYSPKTKRSPLTRAHLTEVESRLERLEQLFLLIFPREDLDMILKMDSLQDIKALLTGLFVQDNVNKDAVTDRLASVETDMPLTLRQHRISATSSSEESSNKGQRQLTVSEFDSPWVWFGGEPGLNLLDLQPS

# Target: T1, ER α
# Assay: phage isolated on ERα on plastic; ICI 182,780
row,binding result,Binder
1,binds,SSRALALFPVGMESR [4PI]
2,binds,SSYWDGSWRRKETCVSCSR [2PI]
3,binds,SSRTAEDYCFFADDYWCSR (also called 16E) [3PI]
4,binds,SSSTPGWWEWDWASR [1PI]
5,binds,SSDCESLTSYPHLKALCSR [5PI]
6,binds,SSTATALRDRLAYSR [6PI]
7,binds,SSGKTREHYREGTSR [7PI]

# Target: T3, estrogen receptor (ER) α as a …; further: test concentration or dose not given here
# Assay: cell-based or functional assay
row,"Fold Induction (ligand-induced β-galactosidase, two-hybrid) [fold]",Binder
1,11,B1A1 (peptide) MKLLSSIEQACDICRLKKLKCSKEKPKCAKCLKNNWECRYSPKTKRSPLTRAHLTEVESRLERLEQLFLLIFPREDLDMILKMDSLQDIKALLTGLFVQDNVNKDAVTDRLASVETDMPLTLRQHRISATSSSEESSNKGQRQLTVSEFCPVGLLVHLLMQ
2,6,B1G8 (peptide) MKLLSSIEQACDICRLKKLKCSKEKPKCAKCLKNNWECRYSPKTKRSPLTRAHLTEVESRLERLEQLFLLIFPREDLDMILKMDSLQDIKALLTGLFVQDNVNKDAVTDRLASVETDMPLTLRQHRISATSSSEESSNKGQRQLTVSEFTSVSRLVTLLLQ
3,3.5,B3E2 (peptide) MKLLSSIEQACDICRLKKLKCSKEKPKCAKCLKNNWECRYSPKTKRSPLTRAHLTEVESRLERLEQLFLLIFPREDLDMILKMDSLQDIKALLTGLFVQDNVNKDAVTDRLASVETDMPLTLRQHRISATSSSEESSNKGQRQLTVSEFGGSVLLRELLCCYDALEPTTTR
4,2.5,B6C4 (peptide) MKLLSSIEQACDICRLKKLKCSKEKPKCAKCLKNNWECRYSPKTKRSPLTRAHLTEVESRLERLEQLFLLIFPREDLDMILKMDSLQDIKALLTGLFVQDNVNKDAVTDRLASVETDMPLTLRQHRISATSSSEESSNKGQRQLTVSEFDRSSILVSLLSMVETLDLQPS
5,4.5,B5H10 (peptide) MKLLSSIEQACDICRLKKLKCSKEKPKCAKCLKNNWECRYSPKTKRSPLTRAHLTEVESRLERLEQLFLLIFPREDLDMILKMDSLQDIKALLTGLFVQDNVNKDAVTDRLASVETDMPLTLRQHRISATSSSEESSNKGQRQLTVSEFSPPSSLLALLLGGKSLEPLPIRYKNVKRQFTSNSRGSVDLQPS
6,3.5,B6A1 (peptide) MKLLSSIEQACDICRLKKLKCSKEKPKCAKCLKNNWECRYSPKTKRSPLTRAHLTEVESRLERLEQLFLLIFPREDLDMILKMDSLQDIKALLTGLFVQDNVNKDAVTDRLASVETDMPLTLRQHRISATSSSEESSNKGQRQLTVSEFTGSRLLLKLLRFPDSSTCSQA

# Target: T2, Gal4 transcriptional activation domain …
# Assay: cell-based or functional assay
# Remark: another data set of the same source
row,Fold induction (yeast two-hybrid) [fold],Binder
1,1,B8A10 (peptide) MKLLSSIEQACDICRLKKLKCSKEKPKCAKCLKNNWECRYSPKTKRSPLTRAHLTEVESRLERLEQLFLLIFPREDLDMILKMDSLQDIKALLTGLFVQDNVNKDAVTDRLASVETDMPLTLRQHRISATSSSEESSNKGQRQLTVSEFVNWDAVVPWSELVALLDLQPS
2,10,B22F6 (peptide) MKLLSSIEQACDICRLKKLKCSKEKPKCAKCLKNNWECRYSPKTKRSPLTRAHLTEVESRLERLEQLFLLIFPREDLDMILKMDSLQDIKALLTGLFVQDNVNKDAVTDRLASVETDMPLTLRQHRISATSSSEESSNKGQRQLTVSEFLSGLEMEVVLWHYGRLDLQPS
3,10,M2H3 (peptide) MKLLSSIEQACDICRLKKLKCSKEKPKCAKCLKNNWECRYSPKTKRSPLTRAHLTEVESRLERLEQLFLLIFPREDLDMILKMDSLQDIKALLTGLFVQDNVNKDAVTDRLASVETDMPLTLRQHRISATSSSEESSNKGQRQLTVSEFRQSFVSEILGGGWLPLDLQPS
4,1,B18C4 (peptide) MKLLSSIEQACDICRLKKLKCSKEKPKCAKCLKNNWECRYSPKTKRSPLTRAHLTEVESRLERLEQLFLLIFPREDLDMILKMDSLQDIKALLTGLFVQDNVNKDAVTDRLASVETDMPLTLRQHRISATSSSEESSNKGQRQLTVSEFDSPWVWFGGEPGLNLLDLQPS
